Data taken from publication doi:10.64898/2025.12.07.692841.
Read-outs that look alike come from different tables or passages of the source.

Assays:
Test in all cases: crystal structure
[1] = target: nitrogenase reductase NifH (dimer) from Methanocaldococcus infernus (Methanocaldococcus infernus strain DSM 11812)
[2] = target: PII-nitrogen regulatory protein NifI2 from Methanocaldococcus infernus (Methanocaldococcus infernus strain DSM 11812)
[3] = target: PII-nitrogen regulatory protein NifI2 from Methanocaldococcus infernus (Methanocaldococcus infernus strain DSM 11812); remark: listed apart in the source

Row | stoichiometry N [1] | stoichiometry N [2] | stoichiometry N [3] | Substance
1 | 2 |  |  | nitrogenase reductase NifH (dimer) from Methanocaldococcus infernus (enzyme)
2 |  | 2 | 2 | PII-nitrogen regulatory protein NifI2 from Methanocaldococcus infernus (natural protein)
